Laboratory results from paper PMC5114850 (Science (New York, N.Y.), 2016).

Target: recombinant human calmodulin (human, UniProt P0DP23 1-149)
Assay: ITC

Kd: 2560 ± 722 nM
dH: -7.8 ± 0.8 kcal/mol
stoichiometry N: 1.01 ± 0.07 sites
Binder: Ac-EDLSSSYYRDYVKKILKKKK-NH2 [CaMBP0 peptide of zebrafish STRA6]
